Data reported in US20220143136A1, “USE OF ANNEXINS IN PREVENTING AND TREATING MUSCLE MEMBRANE INJURY” (NORTHWESTERN UNIVERSITY, priority 2018, published 2022).

Tests used:
[1] = system: Duchenne muscular dystrophy boys; conditions: orally, 100 mg/kg; cited from earlier work
Anxa6^em1(GFP) mice = experiment: Prednisone injection, annexin A6GFP repair cap after laser injury of isolated myofibers; type: in vivo, mouse; conditions: 1 mg/kg intraperitoneal, myofibers isolated 24 hours post injection; vs DMSO control
Protocol: Multiphoton laser injury and imaging. Isolated fibers were subjected to laser-induced damage at room temperature using the Nikon A1R-MP multiphoton microscope. Imaging was performed using a 25×1.1 NA objective directed by the NIS-Elements AR imaging software. Green fluorescence protein (GFP) and FM 4-64 were excited using a 920 nm wavelength laser and emission wavelengths of […] and 629 nm were collected respectively. To induce laser damage on isolated myofibers, a diffraction limited spot (diameter approximately 410 nm) was created on the lateral membrane of the myofiber using a 920 nm wavelength laser at 10-15% laser power for 1 second. Time lapse images were collected as follows: one image was collected prior to damage, one image upon damage, then every 8 s for 80 s (10 images) followed by every 30 seconds for 5 min (10 images). At the end of the time lapsed image series, z-stack images were collected at 250 nm intervals through the damaged site on the myofiber directed by the NIS-Elements AR imaging software. Fluorescence intensity and cap area were measured using Fiji (NIH).
For prednisone studies, prednisone (catalog P6254) was resuspended in DMSO (catalog D2650, Sigma-Aldrich) at 5 mg/ml. Dosing was based on pretreatment weights (1 mg/kg body weight) in 30 μl total PBS. Mice were injected at 7 am on the day prior to imaging. […]

[2] = system: rat model of myocardial ischemia-reperfusion-induced injury; conditions: La et al., FASEB J. 2001; cited from earlier work
myofibers = experiment: Annexin repair cap formation after laser injury at multiple Ca2+ concentrations; type: cell-based, mouse
Protocol: (§1) Electroporation, myofiber isolation, laser injury, cap and vesicle measurement. Flexor digitorum brevis (FDB) fibers were transfected with endo-free plasmid DNA by in vivo electroporation. Methods were described previously in (Demonbreun and McNally, 2015; Demonbreun et al., 2016b; DiFranco et al., 2009). Z-stack projections were acquired from consecutive acquisitions after the final time-lapse frame, approximately 4 minutes post damage, with a […] step size between slices. Z-stack renderings were constructed in FIJI. Measurement of the cap area and feret diameter were conducted from a single slice near the middle of the z-stack using FIJI imaging tools. Fibers expressing similar levels of tagged or GCaMP5G protein were compared. GCaMP5G Ca^2+ fluorescence was measured from the acquired timelapse images, using a standard rectangular ROI, placed inside the myofiber below the site of damage using FIJI. Fluorescence was expressed as F/F0. External vesicle number and GCaMP5G area were measured from endpoint z-stacks and max projection images using FIJI. Vesicles were considered external if they were found outside the sarcolemma assessed in brightfield and fluorescent channels. All measurements were acquired from myofibers isolated from at least n≥3 mice, n≥3 myofibers per mouse.
Calcium kinetics. FDB muscle was electroporated and isolated as described above. Myofibers were damaged in Ringers solution with Ca^2+ concentrations of 2 mM, 1 mM, 0.5 mM, 0.25 mM, 0.175 mM, 0.1 mM, 0.050 mM, and 0 mM. EDTA was added as a Ca^2+ chelating agent in only in the 0 mM Ca^2+ Ringers. Myofibers were isolated directly into 2 mM, 1 mM and 0.5 mM Ringers for those experiments respectively. For experiments using less than 0.5 mM Ca^2+ myofibers were isolated in 0.5 mM Ca^2+ Ringers and then diluted with 0 mM EDTA-free Ca^2+ Ringers. For 0 mM experiments, myofibers were isolated in 0.5 mM Ca^2+ Ringers and then replaced with 0 mM Ca^2++EDTA Ringers just prior to imaging. Co-electroporation of wildtype annexin+wildtype annexin constructs was performed in one mouse foot, while the contralateral foot was co-electroporated with wildtype annexin+mutant annexin. All measurements were acquired from myofibers isolated from at least n≥2 mice, n≥3 myofibers per mouse at each Ca^2+ concentration. Area-Ca^2+ curves were fitted with a Hill Curve at Ca^2+ concentrations ranging from 0-2 mM. Kinetic parameters were calculated using Prism Graphpad.
as §1, with “(Demonbreun A R, Quattrocelli M, Barefield D Y, Allen M V, Swanson K E,” for “(Demonbreun”, “McNally E M. An actin-dependent annexin complex mediates plasma membrane repair in muscle. The Journal of cell biology. 2016; 213(6):705-18; Demonbreun A R, and McNally E M. DNA Electroporation, Isolation and Imaging of Myofibers. Journal of visualized experiments: JoVE.” for “McNally,”, “106(106):e53551;” for “Demonbreun et al., 2016b;”, “M, Quinonez M, Capote J, and Vergara J. DNA transfection of mammalian skeletal muscles using in vivo electroporation. Journal of visualized experiments: JoVE. 2009; 32(32)).” for “et al., 2009).”, “Vesicles were considered external if they were found outside the sarcolemma assessed in brightfield and fluorescent channels. All measurements were acquired from myofibers isolated from at least n≥3 mice, n≥3 myofibers per mouse.” left out

wildtype myofibers [3] = experiment: Laser-induced membrane injury, FM 4-64 dye uptake; type: cell-based, mouse; conditions: mutant A6E233A-GFP vs wildtype annexin A6-GFP expressing myofibers
wildtype myofibers [4] = experiment: Laser injury FM 4-64 uptake, E coli versus HEK cell produced rANXA6; type: cell-based, mouse; conditions: 13 μg/ml and 130 μg/ml; for FM 4-64 dye uptake after laser injury: vs BSA control
Protocol: Myofiber isolation, laser injury, and dye measurement. For recombinant myofibers studies, myofibers were isolated from wildtype mice. Myofibers were incubated in Ringer's media with 13 μg/ml or 130 μg/ml human recombinant annexin, E coli or HEK cell produced. Bovine serum albumin (BSA) was used as a negative control. FM 4-64 ([…]) was added to the myofibers just prior to imaging. Fibers were subjected to laser-induced damage at room temperature using the Nikon A1R-MP multiphoton microscope. Imaging was performed using a 25×1.1 NA objective directed by the NIS-Elements AR imaging software. FM 4-64 was excited using a 920 nm wavelength laser and emission wavelengths of 575 nm and 629 nm were collected, respectively. To induce laser damage on isolated myofibers, a diffraction limited spot (diameter approximately 410 nm) was created on the lateral membrane of the myofiber using a 920 nm wavelength laser at 10-15% laser power for 1 second. FM 4-64 area was measured using FIJI from a single slice near the middle of the z-stack. Myofiber quality control was based on a number of characteristics including using adherent myofibers with intact sarcomere structure. Myofibers appeared devoid of tears or ruptures induced during the isolation protocol. The region of the myofiber selected for damage was linear and not located on a nucleus or neuromuscular junction.
Statistical analyses were performed with Prism (Graphpad, La Jolla, Calif.). Comparisons relied on ANOVA (1way ANOVA for 1 variable). P-values of less than or equal to 0.05 were considered significant. Error bars represent +/−standard error of the mean (SEM).

CC/C=C\C/C=C\C/C=C\C/C=C\C/C=C\C/C=C\CCC(=O)NCCNC(=O)c1ccccc1O [Edasalonexent]
muscle disease progression [1]: delayed muscle disease progression

C[C@]12C=CC(=O)C=C1CC[C@@H]1[C@@H]2C(=O)C[C@@]2(C)[C@H]1CC[C@]2(O)C(=O)CO [prednisone]
annexin A6GFP repair cap size (Anxa6^em1(GFP) mice): reduced

AC2-26: N-terminal annexin A1 peptide (AMVSEFLKQAWFIENEEQEYVQTVK; UniProt P04083 2-26, looked up, fragment) [reference compound]
cardioprotection [2]: cardioprotective response

B1: recombinant annexin A1: recombinant annexin A1 protein (literature) (protein, UniProt P04083 2-346, looked up)
Annexin A1: AMVSEFLKQAWFIENEEQEYVQTVKSSKGGPGSAVSPYPTFNPSSDVAALHKAIMVKGVDEATIIDILTKRNNAQRQQIKAAYLQETGKPLDETLKKALTGHLEEVVLALLKTPAQFDADELRAAMKGLGTDEDTLIEILASRTNKEIRDINRVYREELKRDLAKDITSDTSGDFRNALLSLAKGDRSEDFGVNEDLADSDARALYEAGERRKGTDVNVFNTILTTRSYPQLRRVFQKYTKYSKHDMNKVLDLELKGDIEKCLTAIVKCATSKPAFFAEKLHQAMKGVGTRHKALIRIMVSRSEIDMNDIKAFYQKMYGISLCQAILDETKGDYEKILVALCGGN
cardioprotection [2]: cardioprotective response

B2: annexin A6E233A: Ca2+-binding mutant of annexin A6 (E233A), plasmid expressed, dominant negative (protein, UniProt P14824 2-673, looked up, variant E233A)
Annexin A6: AKIAQGAMYRGSVHDFPEFDANQDAEALYTAMKGFGSDKESILELITSRSNKQRQEICQNYKSLYGKDLIEDLKYELTGKFERLIVNLMRPLAYCDAKEIKDAISGVGTDEKCLIEILASRTNEQMHQLVAAYKDAYERDLESDIIGDTSGHFQKMLVVLLQGTRENDDVVSEDLVQQDVQDLYEAGELKWGTDEAQFIYILGNRSKQHLRLVFDEYLKTTGKPIEASIRGALSGDFEKLMLAVVKCIRSTPEYFAERLFKAMKGLGTRDNTLIRIMVSRSELDMLDIREIFRTKYEKSLYSMIKNDTSGEYKKALLKLCGGDDDAAGQFFPEAAQVAYQMWELSAVSRVELKGTVCAANDFNPDADAKALRKAMKGIGTDEATIIDIVTHRSNAQRQQIRQTFKSHFGRDLMADLKSEISGDLARLILGLMMPPAHYDAKQLKKAMEGAGTDEKTLIEILATRTNAEIRAINEAYKEDYHKSLEDALSSDTSGHFRRILISLATGNREEGGENRDQAQEDAQVAAEILEIADTPSGDKTSLETRFMTVLCTRSYPHLRRVFQEFIKKTNYDIEHVIKKEMSGDVKDAFVAIVQSVKNKPLFFADKLYKSMKGAGTDEKTLTRVMVSRSEIDLLNIRREFIEKYDKSLHQAIEGDTSGDFMKALLALCGGED
modifications: GFP tag
annexin A1, A2 and A6 cap size with co-expressed mutant annexin A6 (myofibers; compared to A1+A6, A2+A6, A6+A6 controls (heterotypic)): significant reduction
repair cap diameter (DMAX) / cap size of the co-expressed wildtype annexin of the same type (myofibers; wildtype+mutant vs wildtype+wildtype co-electroporation (homotypic)): significantly reduced
FM 4-64 fluorescence area after laser injury (wildtype myofibers [3]): increased

B3: E coli produced rANXA6: human recombinant annexin A6 produced in E coli, from R&D Systems or CRO Evotec SE (protein, UniProt P08133 2-673, looked up)
Annexin A6: AKPAQGAKYRGSIHDFPGFDPNQDAEALYTAMKGFGSDKEAILDIITSRSNRQRQEVCQSYKSLYGKDLIADLKYELTGKFERLIVGLMRPPAYCDAKEIKDAISGIGTDEKCLIEILASRTNEQMHQLVAAYKDAYERDLEADIIGDTSGHFQKMLVVLLQGTREEDDVVSEDLVQQDVQDLYEAGELKWGTDEAQFIYILGNRSKQHLRLVFDEYLKTTGKPIEASIRGELSGDFEKLMLAVVKCIRSTPEYFAERLFKAMKGLGTRDNTLIRIMVSRSELDMLDIREIFRTKYEKSLYSMIKNDTSGEYKKTLLKLSGGDDDAAGQFFPEAAQVAYQMWELSAVARVELKGTVRPANDFNPDADAKALRKAMKGLGTDEDTIIDIITHRSNVQRQQIRQTFKSHFGRDLMTDLKSEISGDLARLILGLMMPPAHYDAKQLKKAMEGAGTDEKALIEILATRTNAEIRAINEAYKEDYHKSLEDALSSDTSGHFRRILISLATGHREEGGENLDQAREDAQVAAEILEIADTPSGDKTSLETRFMTILCTRSYPHLRRVFQEFIKMTNYDVEHTIKKEMSGDVRDAFVAIVQSVKNKPLFFADKLYKSMKGAGTDEKTLTRIMVSRSEIDLLNIRREFIEKYDKSLHQAIEGDTSGDFLKALLALCGGED
modifications: E. coli produced
notes: human recombinant annexin A6 produced in E coli, from R&D Systems or CRO Evotec SE
effect on membrane repair, E coli produced compared to mammalian cell produced protein (wildtype myofibers [4]): not significantly different
effect on membrane repair, E coli produced compared to mammalian cell produced protein (wildtype myofibers [4]; listed as annexin A6 protein produced in prokaryotic cells): performed as well as
FM 4-64 dye uptake after laser injury (wildtype myofibers [4]): significantly less

B4: mammalian HEK cell produced rANXA6: human recombinant annexin A6 produced in mammalian HEK cells (protein, UniProt P08133 2-673, looked up)
Annexin A6: B3 Annexin A6
FM 4-64 dye uptake after laser injury (wildtype myofibers [4]): significantly less
